The supplement of paper PMC10201428
± gives the standard deviation of the averaged measurements.

How the values were obtained:
[1] = test system: VchCAST RNA-guided transposition machinery (E. coli BL21(DE3) host, lacZ target); experiment: relative integration efficiency (T-RL orientation) vs wild-type transposon end (log2 (normalized fold change)); transposon end mutated: right end (5 bp flank + 75 bp right end); higher = more efficient transposition
How it was run: (§1)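 In E. coli BL21(DE3), a T7-driven effector plasmid was paired with a pUC57 mini-transposon donor containing 1549 left-end or 1849 right-end barcoded transposon variants. Cells grew on plates with 0.1 mM IPTG at 37°C for 18 h. Relative integration efficiency was derived from Illumina reads of genomic integration junctions against input plasmids, as a log-transformed output/input barcode fold change normalised to reference barcodes.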

[2] = test system: VchCAST RNA-guided transposition machinery (E. coli BL21(DE3) host, lacZ target); experiment: relative integration efficiency (T-LR orientation) vs wild-type transposon end (log2 (normalized fold change)); transposon end mutated: right end (5 bp flank + 75 bp right end); higher = more efficient transposition
How it was run: as §1

| Sequence | relative integration efficiency (log2) [1] | relative integration efficiency (log2) [2] |
| --- | --- | --- |
| ACATTTGTTGATACAACCAAAAAATGATAATTACACCCATAAATTGATAATAATGACACCGAATTTAACTATAACGCTCTGATCATAGTCAGACCAACATTGCTACGACCCGTATTCGCACCGACAC | -1.3 ± 0.18 | 2.17 ± 0.081 |
| ACATTTGTTGATACAACCAAAAAATGATAATTACACCCATAAATTGATAATGATGACACCGAATTTAACTATAACGCTCTGATCATAGTCAGACCAACATTGCTACGACCCGTATTCGCACCGACAC | -1.42 ± 0.27 | 2.11 ± 0.27 |
| ACATTTGTTGATACAACCAAAAAATGATAATTACACCCATAAATTGATAATTGTGACACCGAATTTAACTATAACGCTCTGATCATAGTCAGACCAACATTGCTACGACCCGTATTCGCACCGACAC | -1.12 ± 0.18 | 2.44 ± 0.069 |
| ACATTTGTTGATACAACCAATAAAAGATAATTACACCCATAAATTGATAATTGTGACACCGAATTTAACTATAACGCTCTGATCATAGTCAGACCAACATTGCTACGACCCGTATTCGCACCGACAC | -2 ± 0.21 | 1.26 ± 0.029 |
| ACATTTGTTGATACAACCAATAAAAGATTAATACCCCCATTAATTGATAATTGTGACACCGAATTTAACTATAACGCTCTGATCATAGTCAGACCAACATTGCTACGACCCGTATTCGCACCGACAC | -5.12 ± 0.085 | -2.97 ± 0.16 |
| ACATTTGTTGATACAACCAATAAAAGATTATTACCCCCATTAATTGATAATGATGACACCGAATTTAACTATAACGCTCTGATCATAGTCAGACCAACATTGCTACGACCCGTATTCGCACCGACAC | -4.62 ± 0.48 | -1.84 ± 0.29 |
| ACATTTGTTGATACAACCAATAAATGATAAATACACCCATAAATTGATAATGATGACACCGAATTTAACTATAACGCTCTGATCATAGTCAGACCAACATTGCTACGACCCGTATTCGCACCGACAC | -1.58 ± 0.26 | 1.75 ± 0.069 |
| ACATTTGTTGATACAACCAATAAATGATAATTACACCCATAAATTGATAATAATGACACCGAATTTAACTATAACGCTCTGATCATAGTCAGACCAACATTGCTACGACCCGTATTCGCACCGACAC | -1.44 ± 0.28 | 2.08 ± 0.21 |
| ACATTTGTTGATACAACCAATAAATGATAATTACACCCATAAATTGATAATGATGACACCGAATTTAACTATAACGCTCTGATCATAGTCAGACCAACATTGCTACGACCCGTATTCGCACCGACAC | -1.56 ± 0.22 | 1.92 ± 0.035 |
| ACATTTGTTGATACAACCAATAAATGATAATTACACCCATAAATTGATAATTATCACACCCATAAATTGATATTGCCTCTGATCATAGTCAGACCAACATTGCTACGACCCGTATTCGCACCGACAC | -0.395 ± 0.089 | -0.407 ± 0.67 |
| ACATTTGTTGATACAACCAATAAATGATAATTACACCCATAAATTGATAATTGTGACACCGAATTTAACTATAACGCTCTGATCATAGTCAGACCAACATTGCTACGACCCGTATTCGCACCGACAC | -1.29 ± 0.29 | 2.09 ± 0.064 |
| ACATTTGTTGATACAACCAATAAATGATAATTACACCCATTAATTGATAATAATGACACCGAATTTAACTATAACGCTCTGATCATAGTCAGACCAACATTGCTACGACCCGTATTCGCACCGACAC | -1.48 ± 0.29 | 1.91 ± 0.054 |
| ACATTTGTTGATACAACCAATAAATGATAATTACCCCCATAAATTGATAATTGTGACACCGAATTTAACTATAACGCTCTGATCATAGTCAGACCAACATTGCTACGACCCGTATTCGCACCGACAC | -2.18 ± 0.42 | 1.59 ± 0.12 |
| ACATTTGTTGATACAACCAATAAATGATTATTACACCCATAAATTGATAATAATGACACCGAATTTAACTATAACGCTCTGATCATAGTCAGACCAACATTGCTACGACCCGTATTCGCACCGACAC | 0.0749 ± 0.43 | 3.45 ± 0.19 |
| ACATTTGTTGATACAACCAATTTATGATAATTACACCCATAAATTGATAATTATCACACCCATAAATTGATATTGCCTCTGATCATAGTCAGACCAACATTGCTACGACCCGTATTCGCACCGACAC | -0.308 ± 0.066 | -0.66 ± 0.3 |
| ACATTTGTTGATACAACCAATTTTTGATAATTACACCCAATTTATGATAATTATCACACCCAATTTATGATATTGCCTCTGATCATAGTCAGACCAACATTGCTACGACCCGTATTCGCACCGACAC | -1.89 ± 0.22 | -1.18 ± 0.21 |
| ACATTTGTTGATACAACCAGAAAATGATAATTACACCCAGAAATTGATAATTATCACACCCAGAAATTGATATTGCCTCTGATCATAGTCAGACCAACATTGCTACGACCCGTATTCGCACCGACAC | -5.0799 ± 0.0039 | -3.58 ± 1.1 |
| ACATTTGTTGATACAACCAGCAAATGATAATTACACCCATAAATTGATAATTATCACACCCATAAATTGATATTGCCTCTGATCATAGTCAGACCAACATTGCTACGACCCGTATTCGCACCGACAC | -2.72 ± 0.21 | -3.07 ± 0.51 |

| Sequence | relative integration efficiency (log2) [1] | relative integration efficiency (log2) [2] |
| --- | --- | --- |
| ACATTTGTTGATACAACCAGCCCATGATAATTACACCCATAAATTGATAATTATCACACCCATAAATTGATATTGCCTCTGATCATAGTCAGACCAACATTGCTACGACCCGTATTCGCACCGACAC | -4.196 ± 0.023 | -3.69 ± 0.75 |
| ACATTTGTTGATACAACCAGCCCCGTCGCCGGCACAAACGCCCGGTCGCCGGCGACACAAACGCCCGGTCGCGGTAAGAGGATCATAGTCAGACCAACATTGCTACGACCCGTATTCGCACCGACAC | -7.56 ± 1.3 | -6.28 ± 0.75 |
| ACATTTGTTGATACAACCAGCCCCTGATAATTACACCCAGCCCGTGATAATTATCACACCCAGCCCGTGATATTGCCTCTGATCATAGTCAGACCAACATTGCTACGACCCGTATTCGCACCGACAC | -6.71 ± 0.47 | -4.67 ± 2 |
| ACATTTGTTGATACAACCATAAAAACATAATTACACCCATAAATTGATAATTATCACACCCATAAATTGATATTGCCTCTGATCATAGTCAGACCAACATTGCTACGACCCGTATTCGCACCGACAC | -1.45 ± 0.33 | -1.06 ± 0.19 |
| ACATTTGTTGATACAACCATAAAAACTAAATTACACCCATAAATTGATAATTATCACACCCATAAATTGATATTGCCTCTGATCATAGTCAGACCAACATTGCTACGACCCGTATTCGCACCGACAC | -1.23 ± 0.062 | -1.55 ± 0.34 |
| ACATTTGTTGATACAACCATAAAAAGATAATTACACCCATAAATAGATAATTATCACACCCATAAATAGATATTGCCTCTGATCATAGTCAGACCAACATTGCTACGACCCGTATTCGCACCGACAC | -1.3 ± 0.18 | -0.0292 ± 0.3 |
| ACATTTGTTGATACAACCATAAAAAGATAATTACACCCATAAATTGATAATAATGACACCGAATTTAACTATAACGCTCTGATCATAGTCAGACCAACATTGCTACGACCCGTATTCGCACCGACAC | -1 ± 0.49 | 2.514 ± 0.018 |
| ACATTTGTTGATACAACCATAAAAAGATAATTACACCCATAAATTGATAATGATGACACCGAATTTAACTATAACGCTCTGATCATAGTCAGACCAACATTGCTACGACCCGTATTCGCACCGACAC | -1.33 ± 0.2 | 2.23 ± 0.057 |
| ACATTTGTTGATACAACCATAAAAAGATAATTACACCCATAAATTGATAATTGTGACACCGAATTTAACTATAACGCTCTGATCATAGTCAGACCAACATTGCTACGACCCGTATTCGCACCGACAC | -1.15 ± 0.29 | 2.38 ± 0.082 |
| ACATTTGTTGATACAACCATAAAACGATAATTACACCCATAAATGGATAATTATCACACCCAATTTAACTATAACGCTCTGATCATAGTCAGACCAACATTGCTACGACCCGTATTCGCACCGACAC | -1.18 ± 0.21 | 1.52 ± 0.035 |
| ACATTTGTTGATACAACCATAAAACGATAATTACACCCATAAATGGATCATTATCACACCCAATTTAACTATAACGCTCTGATCATAGTCAGACCAACATTGCTACGACCCGTATTCGCACCGACAC | -1.78 ± 0.29 | 1.06 ± 0.24 |
| ACATTTGTTGATACAACCATAAAACGATAATTACACCCATAAATTCATAATTATCACACCCAATTTAACTATAACGCTCTGATCATAGTCAGACCAACATTGCTACGACCCGTATTCGCACCGACAC | -2.21 ± 0.42 | 1.3 ± 0.2 |
| ACATTTGTTGATACAACCATAAAACGATAATTACACCCATAAATTCATCATTATCACACCCAATTTAACTATAACGCTCTGATCATAGTCAGACCAACATTGCTACGACCCGTATTCGCACCGACAC | -2.21 ± 0.32 | 1.29 ± 0.12 |
| ACATTTGTTGATACAACCATAAAACGATAATTACACCCATAAATTGATCATTATCACACCCAATTTAACTATAACGCTCTGATCATAGTCAGACCAACATTGCTACGACCCGTATTCGCACCGACAC | -1.68 ± 0.16 | 1.86 ± 0.099 |
| ACATTTGTTGATACAACCATAAAAGGATAATTACACCCATAAATGGATAATTATCACACCCATAAATGGATATTGCCTCTGATCATAGTCAGACCAACATTGCTACGACCCGTATTCGCACCGACAC | -1.1 ± 0.065 | -0.23 ± 0.13 |
| ACATTTGTTGATACAACCATAAAAGGATAATTACACCCATAAATTGATAATTATCACACCCCATTTAACTATAACGCTCTGATCATAGTCAGACCAACATTGCTACGACCCGTATTCGCACCGACAC | -1.31 ± 0.2 | 2.32 ± 0.013 |
| ACATTTGTTGATACAACCATAAAAGGATAATTACACCCATAAATTGATAATTATCCCACCCAATTTAACTATAACGCTCTGATCATAGTCAGACCAACATTGCTACGACCCGTATTCGCACCGACAC | -0.818 ± 0.21 | 1.98 ± 0.22 |
